PMC12786156

Target: Xyloglucanase TpXEG12a from Talaromyces pinophilus (Talaromyces pinophilus)
Experiment: SEC; gel filtration on Superdex 75 Increase, 20 mM Tris-HCl, 150 mM NaCl, pH 7.5; calibrated with molecular mass standards

stoichiometry N: 2
Substance: Xyloglucanase TpXEG12a from Talaromyces pinophilus (enzyme)
